# Measured values from the supplement of paper PMC9112550, “Optimization of the antimicrobial peptide Bac7 by deep mutational scanning” (BMC Biology, 2022).
# Tested on: Escherichia coli TOP10
# Experiment: shrunken log2 fold change of peptide-encoding DNA abundance (4.5 h post-induction vs induction); higher = less antimicrobial activity (less host growth inhibition)
# Conditions: time post-induction: 4.5 h; library: site-saturation at positions 5, 18, 19, 20
# 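Further: peptides expressed intracellularly from a pBAD plasmid library in pooled LB shake-flask culture, induced with 0.3% L-arabinose, DNA abundance read by NGS, three biological replicates, DESeq2 with apeglm shrinkage.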
row,Sequence,shrunken log2 fold change
1,RRIRHRPPRLPRPRPRPKHDPRP,-0.363
2,RRIRIRPPRLPRPRPRPIFMPRP,-0.376
3,RRIRIRPPRLPRPRPRPSMQPRP,-0.221
4,RRIRCRPPRLPRPRPRPRYLPRP,-0.799
5,RRIRCRPPRLPRPRPRPKFGPRP,0.231
6,RRIRFRPPRLPRPRPRPVLEPRP,0.00555
7,RRIRGRPPRLPRPRPRPCFTPRP,0.334
8,RRIRSRPPRLPRPRPRPRLKPRP,-0.0978
9,RRIRWRPPRLPRPRPRPNIRPRP,-0.135
10,RRIRDRPPRLPRPRPRPLTWPRP,0.24
11,RRIRGRPPRLPRPRPRPEESPRP,1.82
12,RRIRPRPPRLPRPRPRPKERPRP,0.128
13,RRIRRRPPRLPRPRPRPNGMPRP,-0.0764
14,RRIRARPPRLPRPRPRPVKQPRP,-0.0614
15,RRIRSRPPRLPRPRPRPYLSPRP,-0.062
16,RRIRLRPPRLPRPRPRPKMTPRP,-0.181
17,RRIRCRPPRLPRPRPRPPRHPRP,0.646
18,RRIRHRPPRLPRPRPRPHWKPRP,-0.337
19,RRIRTRPPRLPRPRPRPTVVPRP,0.0732
20,RRIRMRPPRLPRPRPRPHPSPRP,-0.127
21,RRIRGRPPRLPRPRPRPASSPRP,0.653
22,RRIRFRPPRLPRPRPRPLTFPRP,-0.391

row,Sequence,shrunken log2 fold change
1,RRIRVRPPRLPRPRPRPCNYPRP,-0.119
2,RRIRGRPPRLPRPRPRPRCCPRP,0.474
3,RRIRTRPPRLPRPRPRPFVEPRP,-0.284
4,RRIRSRPPRLPRPRPRPGEAPRP,0.287
5,RRIRERPPRLPRPRPRPWQHPRP,-0.00568
6,RRIRQRPPRLPRPRPRPSQLPRP,0.0128
7,RRIRFRPPRLPRPRPRPGCKPRP,-0.222
8,RRIRWRPPRLPRPRPRPQQVPRP,-0.00531
9,RRIRSRPPRLPRPRPRPKEHPRP,0.0336
10,RRIRPRPPRLPRPRPRPWIYPRP,-0.584
11,RRIRTRPPRLPRPRPRPDLEPRP,-0.00853
12,RRIRTRPPRLPRPRPRPRSHPRP,0.109
13,RRIRVRPPRLPRPRPRPHKPPRP,-0.0132
14,RRIRGRPPRLPRPRPRPNVVPRP,0.0631
15,RRIRLRPPRLPRPRPRPSVAPRP,-0.0589
16,RRIRTRPPRLPRPRPRPMRAPRP,1
17,RRIRERPPRLPRPRPRPLPQPRP,-0.06
18,RRIRKRPPRLPRPRPRPDSWPRP,0.0425
19,RRIRTRPPRLPRPRPRPSHSPRP,-0.399
20,RRIRFRPPRLPRPRPRPFATPRP,-0.0942
21,RRIRWRPPRLPRPRPRPLEQPRP,0.392
22,RRIRQRPPRLPRPRPRPDRSPRP,0.0153

row,Sequence,shrunken log2 fold change
1,RRIRNRPPRLPRPRPRPRSYPRP,-0.0727
2,RRIRIRPPRLPRPRPRPNNNPRP,-0.982
3,RRIRVRPPRLPRPRPRPFPMPRP,-0.35
4,RRIRPRPPRLPRPRPRPLVIPRP,-0.509
5,RRIRCRPPRLPRPRPRPLIYPRP,-0.764
6,RRIRRRPPRLPRPRPRPRILPRP,-0.143
7,RRIRRRPPRLPRPRPRPEVGPRP,0.946
8,RRIRTRPPRLPRPRPRPSLWPRP,0.277
9,RRIRPRPPRLPRPRPRPNYWPRP,-0.234
10,RRIRMRPPRLPRPRPRPFIVPRP,-0.414
11,RRIRMRPPRLPRPRPRPERSPRP,3.22
12,RRIRFRPPRLPRPRPRPTTFPRP,-0.388
13,RRIRCRPPRLPRPRPRPVHKPRP,0.287
14,RRIRYRPPRLPRPRPRPGFCPRP,-0.266
15,RRIRKRPPRLPRPRPRPKYFPRP,-0.098
16,RRIRSRPPRLPRPRPRPWWEPRP,-0.0921
17,RRIRNRPPRLPRPRPRPYKRPRP,-1.27
18,RRIRPRPPRLPRPRPRPQVPPRP,0.0319
19,RRIRGRPPRLPRPRPRPFPTPRP,0.63
20,RRIRCRPPRLPRPRPRPRCRPRP,0.285
21,RRIRCRPPRLPRPRPRPLPYPRP,-0.804
22,RRIRNRPPRLPRPRPRPYRHPRP,-0.01

row,Sequence,shrunken log2 fold change
1,RRIRFRPPRLPRPRPRPKMCPRP,-0.487
2,RRIRARPPRLPRPRPRPYRFPRP,0.0859
3,RRIRTRPPRLPRPRPRPLMLPRP,-0.297
4,RRIRIRPPRLPRPRPRPFPRPRP,-0.123
5,RRIRKRPPRLPRPRPRPGKGPRP,-0.0491
6,RRIRPRPPRLPRPRPRPDLKPRP,-0.0801
7,RRIRQRPPRLPRPRPRPERDPRP,0.321
8,RRIRLRPPRLPRPRPRPQMFPRP,-0.427
9,RRIRGRPPRLPRPRPRPEGPPRP,-0.0198
10,RRIRCRPPRLPRPRPRPGFSPRP,-0.257
11,RRIRWRPPRLPRPRPRPAQYPRP,0.122
12,RRIRGRPPRLPRPRPRPMSNPRP,0.473
13,RRIRWRPPRLPRPRPRPMMSPRP,0.19
14,RRIRHRPPRLPRPRPRPGDAPRP,0.0297
15,RRIRTRPPRLPRPRPRPWPRPRP,0.116
16,RRIRARPPRLPRPRPRPNRAPRP,-0.0385
17,RRIRERPPRLPRPRPRPGHTPRP,-0.0164
18,RRIRNRPPRLPRPRPRPGGFPRP,0.144
19,RRIRVRPPRLPRPRPRPAHWPRP,0.313
20,RRIRARPPRLPRPRPRPVYSPRP,-0.312
21,RRIRFRPPRLPRPRPRPFFSPRP,-0.59
22,RRIRARPPRLPRPRPRPHVNPRP,-0.467

row,Sequence,shrunken log2 fold change
1,RRIRNRPPRLPRPRPRPRSFPRP,0.0523
2,RRIRKRPPRLPRPRPRPGSKPRP,-0.0334
3,RRIRCRPPRLPRPRPRPAHFPRP,0.147
4,RRIRWRPPRLPRPRPRPWTEPRP,-0.301
5,RRIRLRPPRLPRPRPRPGVVPRP,0.27
6,RRIRQRPPRLPRPRPRPDYEPRP,0.0301
7,RRIRMRPPRLPRPRPRPDFIPRP,-0.0216
8,RRIRWRPPRLPRPRPRPMNHPRP,-0.426
9,RRIRFRPPRLPRPRPRPVGCPRP,-0.0325
10,RRIRDRPPRLPRPRPRPPNYPRP,-0.147
11,RRIRERPPRLPRPRPRPFLLPRP,-0.688
12,RRIRIRPPRLPRPRPRPHTCPRP,-0.0906
13,RRIRARPPRLPRPRPRPYQWPRP,-0.0841
14,RRIRYRPPRLPRPRPRPQCHPRP,-0.198
15,RRIRSRPPRLPRPRPRPANAPRP,0.438
16,RRIRLRPPRLPRPRPRPMATPRP,-0.187
17,RRIRARPPRLPRPRPRPEMWPRP,1.21
18,RRIRCRPPRLPRPRPRPNQFPRP,-0.23
19,RRIRYRPPRLPRPRPRPYFGPRP,0.0143
20,RRIRLRPPRLPRPRPRPSDFPRP,-0.131
21,RRIRSRPPRLPRPRPRPLGSPRP,0.193
